Like-named read-outs stand apart in the source and are kept apart here. Square brackets hold non-standard residues; d marks the D form. Peptide text beside a SMILES is read from it. * marks the point of attachment. X1 = N=c1ccc2c(-c3ccc(C(=O)NCCCCCN4C(=O)CC(*)C4=O)cc3C(=O)O)c3ccc(N)c(S(=O)(=O)O)c3oc-2c1S(=O)(=O)O; pT = C[C@@H](OP(=O)(O)O)[C@H](N)C(=O)O; pS = N[C@@H](COP(=O)(O)O)C(=O)O
How the values were obtained:
[1] = molecular target: Mad1 CTD (Homo sapiens) (UniProt Q9Y6D9); conditions: cited from earlier work
[2] = molecular target: T1, pMad1CTD:Cdc20N complex (Homo sapiens, UniProt Q12834+Q9Y6D9); assay: Fluorescence anisotropy: AF488-Bub1CD1 binding to preformed pMad1CTD:Cdc20N complex; conditions: KD 1.7 vs 0.9 µM for pMad1CTD alone
T1 construct: the C-terminal domain of Mad1 (residue 597–718); made in house; host or cells: Cdc20N: E. coli Rosetta 2 (DE3)
Procedure: (§1) All reactions were completed in a buffer of 25 mM HEPES pH 7.75, 1 mM TCEP, 100 mM NaCl, 0.05% (v/v) Tween-20. […] Measurements were performed with a PheraStar plate reader FSX plate reader (BMG Labtech) using an optic module for λex = 485 nm, λem = 520 nm. Reactions were carried out in a total volume of 40 μl at 25 °C in a black, flat-bottom, non-binding surface 384-well plate (Corning). All experiments were performed as technical triplicates and data were analysed in PRISM 9.3.1 (GraphPad Software).

[3] = molecular target: Mad1^CTD phosphorylated at Thr716 (pMad1^CTD) (UniProt Q9Y6D9); assay: AUC; sedimentation equilibrium; 20 mM HEPES pH 7.5, 100 mM NaCl, 1 mM TCEP; 20 °C; 10,200, 12,200 and 21,000 rpm; up to four-fold molar excess of Cdc20^N
[4] = molecular target: T2, preformed AF488-Bub1^CD1:Mad1^CTD complex (Mad1^CTD unphosphorylated) (UniProt Q9Y6D9 597-718, Aurora Fluor 488 (AF488) on the N-terminal Cys; phosphoserine (pSer459); phosphothreonine (pThr461)); assay: fluorescence polarisation; fluorescence anisotropy; Cdc20^N twofold series (100 μM to 6 nM, mixed 1:1) titrated into preformed AF488-Bub1^CD1:Mad1^CTD (20 nM: 2.1 µM); 25 mM HEPES pH 7.75, 1 mM TCEP, 100 mM NaCl, 0.05% Tween-20; 25 °C; conditions: both partners purified
T2 construct: Mad1 C-terminal domain (Mad1^CTD), residues 597-718; as m1; added N-terminal Cys (carries AF488) and Trp; as m7; Bub1 conserved domain 1 (CD1) peptide; also called Mad1^CTD:AF488-Bub1^CD1 complex; source: mixed from purified Mad1^CTD and synthetic peptide (20 nM: 2.1 µM); copies: 2 + 1
T2 sequence 1: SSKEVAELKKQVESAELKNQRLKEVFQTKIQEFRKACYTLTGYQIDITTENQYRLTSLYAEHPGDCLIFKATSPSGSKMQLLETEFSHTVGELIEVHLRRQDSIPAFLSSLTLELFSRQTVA
T2 sequence 2: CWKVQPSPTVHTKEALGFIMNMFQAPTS

[5] = molecular target: T3, preformed AF488-Bub1^CD1:pMad1^CTD complex (Mad1^CTD phosphorylated at Thr716) (UniProt Q9Y6D9 597-718, phosphothreonine at 716 (pThr716) | Aurora Fluor 488 (AF488) on the N-terminal Cys; phosphoserine (pSer459); phosphothreonine (pThr461)); assay: as above; conditions: both partners purified
T3 construct: Mad1 C-terminal domain (Mad1^CTD), residues 597-718; as m2; added N-terminal Cys (carries AF488) and Trp; as m7; Bub1 conserved domain 1 (CD1) peptide; source: mixed from purified pMad1^CTD and synthetic peptide (20 nM: 2.1 µM); copies: 2 + 1
T3 sequence 1: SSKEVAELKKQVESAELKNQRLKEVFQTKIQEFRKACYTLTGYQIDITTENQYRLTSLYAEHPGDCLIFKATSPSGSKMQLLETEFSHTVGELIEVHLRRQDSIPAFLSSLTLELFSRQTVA
T3 sequence 2: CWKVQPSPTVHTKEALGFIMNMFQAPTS

[6] = molecular target: Mad1^CTD phosphorylated at Thr716 (pMad1^CTD) (UniProt Q9Y6D9); assay: SEC-MALS; Superdex 75 or Superdex 200 Increase 10/300 GL, 0.5 ml/min; about 100 μl at ~3.0 mg/ml; Mad1^CTD dimer to Cdc20^N 1:1.2; proteins also run alone
[7] = test system: Mad1CTD R617E/K619D mutant; assay: SEC-MALS, Cdc20N with Mad1CTD R617E/K619D; type: binding, human; conditions: 1:1.2 ratio Mad1CTD dimer to Cdc20N
Procedure: (§2) Size-exclusion chromatography coupled with multi-angle static light scattering (SEC-MALS), was performed using an Agilent 1200 series LC system with an online Dawn Helios ii system (Wyatt) equipped with a QELS + module (Wyatt) and an Optilab rEX differential refractive index detector (Wyatt). About 100 μl purified protein at ~3.0 mg/ml was auto-injected onto Superdex 75 or a Superdex 200 Increase 10/300 GL column (GE Healthcare) and run at 0.5 ml/min. The molecular masses were analysed with ASTRA 7.3.0.11 (Wyatt). Data were plotted using Prism 8.4.3 (GraphPad Software, Inc). Purified Cdc20^N and Cdc20^N mutants were incubated with Mad1^CTD wild-type or mutants at a 1:1.2 ratio of Mad1^CTD dimer to Cdc20^N.

[8] = test system: pMad1CTD (Mad1CTD pT716); assay: SEC-MALS, Cdc20N with pMad1CTD; type: binding, human; conditions: 1:1.2 ratio Mad1CTD dimer to Cdc20N
Procedure: as §2

[9] = test system: AF488-Bub1CD1:pMad1CTD complex; assay: Fluorescence anisotropy: Cdc20N titrated into preformed AF488-Bub1CD1:pMad1CTD complex; type: binding, human; conditions: at the concentrations used in the assay
[10] = molecular target: T4, Mad2 R133A prepared in the open state for NMR (O-Mad2) (UniProt Q13257 1-205, R133A); assay: NMR time course (1H,15N HSQC); 100 μM 15N O-Mad2 R133A with 200 μM Cdc20^MIM peptide; 25 °C; Trp75 and Trp167 indole resonances as reporters; conditions: both partners purified
T4 construct: Mad2; also called O-Mad2 with an R133A mutation; source: 15N-labelled in M9 minimal media

[11] = molecular target: the molecule itself; assay: SEC-MALS; Superdex 75 or Superdex 200 Increase 10/300 GL, 0.5 ml/min; about 100 μl at ~3.0 mg/ml; Mad1^CTD dimer to Cdc20^N 1:1.2; proteins also run alone
[12] = test system: spindle assembly checkpoint; conditions: cited from earlier work
From the text: (§3) In this predicted model, the Cdc20^N α1 helix lies diagonally across the Mad1^CTD coiled-coil with its N-terminus close to the Mad1 RLK motif of one monomer, and the C-terminus contacting the head domain β-sheet of the adjacent monomer, in a manner that strikingly mimics the Bub1^CD1:Mad1^CTD interaction (Fig. 4d). Similar to Bub1^CD1, the interaction of Cdc20 α1 with Mad1^CTD would largely be driven by hydrophobic interactions (Fig. 4e). This model predicts that Gln3 and Glu7, and Asp9 of Cdc20 α1 interact with Arg617 and Lys619, respectively of the Mad1^CTD RLK motif (Fig. 4d). This is consi ...

[13] = test system: Bub1CD1; conditions: cited from earlier work
From the text: as §3

[14] = test system: Bub1CD1; assay: Binding of Mad1CTD mutants to Bub1CD1; conditions: fluorescence anisotropy therefore not usable for this mutant
Procedure: as §1

T4 sequence (Q13257 whole entry R133A): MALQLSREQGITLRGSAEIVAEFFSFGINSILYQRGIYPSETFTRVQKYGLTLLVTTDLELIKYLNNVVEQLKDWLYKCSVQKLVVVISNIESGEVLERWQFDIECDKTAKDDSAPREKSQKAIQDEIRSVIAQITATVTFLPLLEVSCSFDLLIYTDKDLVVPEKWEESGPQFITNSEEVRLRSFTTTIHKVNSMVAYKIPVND

Molecule: Bub1 CD1 (from UniProt O43683)
- Kd [1]: 2.7 µM

Molecule: CC[C@H](C)[C@H](NC(=O)[C@H](Cc1ccccc1)NC(=O)CNC(=O)[C@H](CC(C)C)NC(=O)[C@H](C)NC(=O)[C@H](CCC(=O)O)NC(=O)[C@H](CCCCN)NC(=O)[C@@H](NC(=O)[C@H](Cc1c[nH]cn1)NC(=O)[C@@H](NC(=O)[C@@H](NC(=O)[C@@H]1CCCN1C(=O)[C@H](COP(=O)(O)O)NC(=O)[C@@H]1CCCN1C(=O)[C@H](CCC(N)=O)NC(=O)[C@@H](NC(=O)[C@H](CCCCN)NC(=O)[C@H](Cc1c[nH]c2ccccc12)NC(=O)[C@@H](N)CSC1CC(=O)N(CCCCCNC(=O)c2ccc(-c3c4ccc(=N)c(S(=O)(=O)O)c-4oc4c(S(=O)(=O)O)c(N)ccc34)c(C(=O)O)c2)C1=O)C(C)C)[C@@H](C)OP(=O)(O)O)C(C)C)[C@@H](C)O)C(=O)N[C@@H](CCSC)C(=O)N[C@@H](CC(N)=O)C(=O)N[C@@H](CCSC)C(=O)N[C@@H](Cc1ccccc1)C(=O)N[C@@H](CCC(N)=O)C(=O)N[C@@H](C)C(=O)N1CCC[C@H]1C(=O)N[C@H](C(=O)N[C@@H](CO)C(=O)O)[C@@H](C)O (stereo partly drawn) [AF488-Bub1^CD1] (H-C(X1)WKVQP[pS]P[pT]VHTKEALGFIMNMFQAPTS-OH; N-terminus and C-terminus assumed)
- cooperativity of Bub1CD1 and Cdc20N binding to pMad1CTD [2]: unlikely to be cooperative
- cooperativity of Bub1CD1 and Cdc20N binding to pMad1CTD ([2]; listed as AF488-Bub1CD1): no cooperativity

B1: Cdc20^N (N-terminal truncation of Cdc20, residues 1-73) (domain or fragment, human, UniProt Q12834 1-73, looked up)
chain: MAQFAFESDLHSLLQLDAPIPNAPPARWQRKAKEAAGPAPSPMRAANRSHSAGRTPGRTPGKSSSKVQTTPSK
notes: human Cdc20, residues 1-73; also called Cdc20^1–73; wild-type Cdc20^N; source: E. coli Rosetta 2 (DE3), purified (TALON, TEV cleavage, HisTrap, Resource S, Superdex 75); not shown: His6, N-terminal, cleaved; MBP, N-terminal, cleaved
- stoichiometry N (Cdc20^N per pMad1^CTD homodimer) [3]: 1
- Kd [4]: 28.1 µM
- Kd [5]: 4.8 µM
- stoichiometry N (Cdc20^N per pMad1^CTD dimer) [6]: 1

B2: Cdc20^N E7R/D9K: Cdc20N E7R/D9K mutant (protein)
chain: MAQFAFRSKLHSLLQLDAPIPNAPPARWQRKAKEAAGPAPSPMRAANRSHSAGRTPGRTPGKSSSKVQTTPSK
modifications: left off: His6, N-terminal, state not stated | MBP, N-terminal, state not stated
notes: Cdc20N E7R/D9K mutant
- binding by SEC-MALS [7]: did not show an interaction
- binding by SEC-MALS [8]: could no longer be observed
- interaction with pMad1CTD by fluorescence anisotropy [9]: could no longer be observed

B3: Cdc20^MIM peptide (peptide)
peptide: NLNGFDVEEAKILRLSGKPQNAPEGYQNRLKVLY
notes: source: synthetic peptide (Designer Bioscience, UK)
- binding result [10]: binds

B4: Mad1^CTD phosphorylated at Thr716 (pMad1^CTD) (domain or fragment, UniProt Q9Y6D9 597-718, looked up)
chain: SSKEVAELKKQVESAELKNQRLKEVFQTKIQEFRKACYTLTGYQIDITTENQYRLTSLYAEHPGDCLIFKATSPSGSKMQLLETEFSHTVGELIEVHLRRQDSIPAFLSSLTLELFSRQTVA
modifications: phosphothreonine at 716 (pThr716)
notes: Mad1 C-terminal domain (Mad1^CTD), residues 597-718; Homodimer; A few peptides phosphorylated at Thr644 were also found; one phosphate per monomer by intact mass; also called Mad1^CTD pT716; Mad1^CTD pThr716
- stoichiometry N [11]: 2

B5: Mad1^CTD K619A: Mad1CTD K619A mutant, refs 21, 24 (protein, UniProt Q9Y6D9 597-718, looked up, variant K619A)
chain: SSKEVAELKKQVESAELKNQRLAEVFQTKIQEFRKACYTLTGYQIDITTENQYRLTSLYAEHPGDCLIFKATSPSGSKMQLLETEFSHTVGELIEVHLRRQDSIPAFLSSLTLELFSRQTVA
- checkpoint function [12]: disrupted the checkpoint
- Bub1CD1 binding of Mad1CTD mutant [13]: did not disrupt Bub1^CD1 binding significantly

B6: Mad1^CTD R617E/K619D: Mad1CTD double mutant of the RLK motif (protein)
chain: SSKEVAELKKQVESAELKNQELDEVFQTKIQEFRKACYTLTGYQIDITTENQYRLTSLYAEHPGDCLIFKATSPSGSKMQLLETEFSHTVGELIEVHLRRQDSIPAFLSSLTLELFSRQTVA
- Bub1CD1 binding of Mad1CTD mutant [14]: disrupted the binding of Bub1^CD1

From paper PMC9605988, “Juxtaposition of Bub1 and Cdc20 on phosphorylated Mad1 during catalytic mitotic checkpoint complex assembly” (Nature Communications, 2022)
